Measured values taken from publication PMC11940719, “Assembly Formation of P65 Protein, Featured by an Intrinsically Disordered Region Involved in Gliding Machinery of Mycoplasma pneumoniae” (Biomolecules, 2025).
Read-outs that look alike come from different tables or passages of the source.

Tests used:
[1] = target: P65 fragment C (tryptic fragment of region II) (Mycoplasma pneumoniae (strain M129-B7)); assay: AUC; sedimentation velocity in 150 mM NaCl, 20 mM Tris-HCl (pH 8.0); absorbance scans at 10-minute intervals; C(s) distribution (SEDFIT)
[2] = target: the molecule itself; assay: as above
[3] = target: the molecule itself; assay: negative staining electron microscopy; proteins at 40 µg/mL stained with 2% uranyl acetate on carbon-coated grids, 80 kV
[4] = target: the molecule itself; assay: AUC; sedimentation velocity in 150 mM NaCl, 20 mM Tris-HCl (pH 8.0); absorbance scans at 10-minute intervals; C(s) distribution (SEDFIT); remark: listed apart in the source

P65 fragment C (tryptic fragment of region II) (domain or fragment)
stoichiometry N [1]: 3

B1: P65 fragment D (regions I and II, residues 1-320) (domain or fragment)
chain: MDINKPGWNQSDQQATAYDPNQQQYYGDGSTYYDPDQAVDPNQAYYPDPNTYPDAAAYYGYGQDGQAYPQDYAQDPNQAYYADPNAYQDPNAYTDPNAYVDPNAYQDPNAYVDPNNYTDPNAYYGYGQDGQAYPQDYAQDPNQAYYADPNAYQDPNAYTDPYYVTSTDPNAYYGQVDNVPALEASDLAYEVTPQEQAAEQELFSEPETKVIREIHEFPFEKIRSYFQTDFDSYNSRLTQLKDKLDNAIFSMRKAIDTVKENSANLQIMKQNFERQLKEQQTQRLTSNTDAEKIGAKINQLEERMQRLSRTMESVEWTKKE
notes: P65 protein of Mycoplasma pneumoniae strain M129-B7 (AGC04228), residues 1-320 (regions I and II); No cleavage of the tag is described; The printed theoretical mass of 39,080 Da probably includes the tag peptide; source: E. coli BL21(DE3), soluble fraction, purified (HisTrap HP, size exclusion chromatography)
stoichiometry N [2]: 3

B2: P65 fragment B (residues 185-405) (domain or fragment)
chain: SDLAYEVTPQEQAAEQELFSEPETKVIREIHEFPFEKIRSYFQTDFDSYNSRLTQLKDKLDNAIFSMRKAIDTVKENSANLQIMKQNFERQLKEQQTQRLTSNTDAEKIGAKINQLEERMQRLSRTMESVEWTKKEPRQEQFDPRFVDPRNFNNYVNNTDTMMSMFEKVLMMNLLRSTTPVQPPVQYFTPQPLTASPRPVYEEPISASFRRRGYRGDEFYE
notes: P65 protein of Mycoplasma pneumoniae strain M129-B7 (AGC04228), residues 185-405 by mass spectrometry (26.3 kDa; theoretical 26,279 Da); peptide mass fingerprinting covers at least residues 212-405; source: the digest containing fragment B was used
binding result [3]: binds

B3: full-length P65 protein of Mycoplasma pneumoniae (natural protein)
chain: MDINKPGWNQSDQQATAYDPNQQQYYGDGSTYYDPDQAVDPNQAYYPDPNTYPDAAAYYGYGQDGQAYPQDYAQDPNQAYYADPNAYQDPNAYTDPNAYVDPNAYQDPNAYVDPNNYTDPNAYYGYGQDGQAYPQDYAQDPNQAYYADPNAYQDPNAYTDPYYVTSTDPNAYYGQVDNVPALEASDLAYEVTPQEQAAEQELFSEPETKVIREIHEFPFEKIRSYFQTDFDSYNSRLTQLKDKLDNAIFSMRKAIDTVKENSANLQIMKQNFERQLKEQQTQRLTSNTDAEKIGAKINQLEERMQRLSRTMESVEWTKKEPRQEQFDPRFVDPRNFNNYVNNTDTMMSMFEKVLMMNLLRSTTPVQPPVQYFTPQPLTASPRPVYEEPISASFRRRGYRGDEFYE
notes: P65 protein of Mycoplasma pneumoniae strain M129-B7, p65 gene (AGC04228), codon-optimised, in pET-15b (NdeI, BamHI); 405 residues; Forms a multimer of more than 60 subunits (about 3.10 x 10^6 Da) by analytical ultracentrifugation; The printed mass of 49,203 Da probably includes the tag peptide; also called Whole
stoichiometry N [4]: > 60
